According to patent US12460006B2, “Antibodies against integrin alpha 11 beta 1” (Momenta Pharmaceuticals, Inc., priority 2019, dated 2025):

B1: 4E1: rabbit anti-α11β1 mAb; heavy chain SEQ ID NO: 195, light chain SEQ ID NO: 196 (antibody)
heavy: METGLRWLLLVAVLKGVQCQSLEESGGDLVKPGTSLTLSCTASGFSFGSYYYMCWVRQAPGKGLEWIACIDVGSSGDTYYASWVNGRFTISKTSSTTVTLQMTSLTAADTATYFCARDDTAAGGFGNLELWGPGTLVTVSSGQPKAPSVFPLAPCCGDTPSSTVTLGCLVKGYLPEPVTVTWNSGTLTNGVRTFPSVRQSSGLYSLSSVVSVTSSSQPVTCNVAHPATNTKVDKTVAPSTCSKPMCPPPELPGGPSVFIFPPKPKDTLMISRTPEVTCVVVDVSQDDPEVQFTWYINNEQVRTARPPLREQQFNSTIRVVSTLPIAHQDWLRGKEFKCKVHNKALPAPIEKTISKARGQPLEPKVYTMGPPREELSSRSVSLTCMINGFYPSDISVEWEKNGKAEDNYKTTPTVLDSDGSYFLYSKLSVPTSEWQRGDVFTCSVMHEALHNHYTQKSISRSPGK
light: MDTRAPTQLLGLLLLWLPGARCAFELTQTPSSVSEPVGGTVTIKCQASQSIYSYFSWYQQKPGQPPKRLIYQASTLASGVPSRFKGSGSGTDFTLTISDLECADAATYYCQNNYGRGSGSYFFGFGGGTEVVVKGDPVAPTVLIFPPAADQVATGTVTIVCVANKYFPDVTVTWEVDGTTQTTGIENSKTPQNSADCTYNLSSTLTLTSTQYNSHKEYTCKVTQGTTSVVQSFNRGDC
B2: 6C7: rabbit anti-α11β1 mAb; heavy chain SEQ ID NO: 185, light chain SEQ ID NO: 186 (antibody)
heavy: METGLRWLLLVAVLKGVQCQQQLEESGGGLVKPGGTLTLTCKASGIDFSSYYYMCWVRQAPGKGLELIVCIYTSSGGTWYASWVNGRLTISRSTSLNTVDLKMTSLTAADTATYFCARGVYSGSSDYPTRLDLWGQGTLVTVSLGQPKAPSVFPLAPCCGDTPSSTVTLGCLVKGYLPEPVTVTWNSGTLTNGVRTFPSVRQSSGLYSLSSVVSVTSSSQPVTCNVAHPATNTKVDKTVAPSTCSKPMCPPPELPGGPSVFIFPPKPKDTLMISRTPEVTCVVVDVSQDDPEVQFTWYINNEQVRTARPPLREQQFNSTIRVVSTLPIAHQDWLRGKEFKCKVHNKALPAPIEKTISKARGQPLEPKVYTMGPPREELSSRSVSLTCMINGFYPSDISVEWEKNGKAEDNYKTTPTVLDSDGSYFLYSKLSVPTSEWQRGDVFTCSVMHEALHNHYTQKSISRSPGK
light: MDTSTSTALLGLLLLWLTGARCAIEMTQSPPSLSASVGETVRIRCLASEDIYSGISWYQQKPEKPPTLLISGASNLESGVPPRFSGGGSGTDYTLTIGGVQAEDVATYYCLGGYSFSSTGLTFGAGTKVEIKRDPVAPSVLLFPPSKEELTTGTATIVCVANKYFPDVTVTWEVDGTTQTTGIENSKTPQNSADCTYNLSSTLTLTSTQYNSHKEYTCKVTQGTTSVVQSFNRGDC
B3: 6G4: rabbit anti-α11β1 mAb; heavy chain SEQ ID NO: 181, light chain SEQ ID NO: 182 (antibody)
heavy: METGLRWLLLVAVLKGVQCQQQLEESGGGLVKPGGTLTLTCKASGVALNPYYYMCWVRQAPGKGLEWIACVDADSSGSTYYASWAKGRFTISKTSSTTVTLKMTSLTAADTATYFCARESVDYSSVGIGYVHGTDGLWGPGTLVTVSSGQPKAPSVFPLAPCCGDTPSSTVTLGCLVKGYLPEPVTVTWNSGTLTNGVRTFPSVRQSSGLYSLSSVVSVTSSSQPVTCNVAHPATNTKVDKTVAPSTCSKPMCPPPELPGGPSVFIFPPKPKDTLMISRTPEVTCVVVDVSQDDPEVQFTWYINNEQVRTARPPLREQQFNSTIRVVSTLPIAHQDWLRGKEFKCKVHNKALPAPIEKTISKARGQPLEPKVYTMGPPREELSSRSVSLTCMINGFYPSDISVEWEKNGKAEDNYKTTPTVLDSDGSYFLYSKLSVPTSEWQRGDVFTCSVMHEALHNHYTQKSISRSPGK
light: MDTRAPTQLLGLLLLWLPGARCADIVVTQTPSSVSAAVGGTVTIKCQASQSISNYFSWYQQKPGQPPKLLIYRASTLASGVPSRFKGSGSGTEFTLTISDLECADAATYYCQCTYGRSNSNFFYGFGGGTEVVVKGDPVAPTVLIFPPAADQVATGTVTIVCVANKYFPDVTVTWEVDGTTQTTGIENSKTPQNSADCTYNLSSTLTLTSTQYNSHKEYTCKVTQGTTSVVQSFNRGDC
B4: 7-H14: mouse anti-α11β1 mAb; VH SEQ ID NO: 121, VL SEQ ID NO: 122 (antibody, V domains shown)
VH: QVQLQQPGAELVRPGASVKLSCKPSGYTFTSYWMNWVKQRPGQGLEWIGMIDPSDSETHYNQMFKDKATLTVDKSSNTAYMQLSSLTSEDSAVYYCAQIYYAYDKAYWGQGTLVTVSA
VL: DIVMSQSPSSLAVSVGEKVTMSCKSSQSLLYSSHQKNYLAWYQQKPGQSPKLLIYWASTRESGVPDRFTGSGSGTDFSLTISSVKAEDLAVYYCQEYYSWTFGGGTKLEIK
B5: 6F9: rabbit anti-α11β1 mAb; heavy chain SEQ ID NO: 183, light chain SEQ ID NO: 184 (antibody)
heavy: METGLRWLLLVAVLKGVQCQSLEESGGDLVKPGASLTLTCTASGSSFSSTYWNCWVRQAPGKGLEWIACINAGSGTTYYASWAKGRFTVSKTSSTTVTLQMTSLTAADTATYFCTRDSDGRFSSGYYFNLWGPGTLVTVSSGQPKAPSVFPLAPCCGDTPSSTVTLGCLVKGYLPEPVTVTWNSGTLTNGVRTFPSVRQSSGLYSLSSVVSVTSSSQPVTCNVAHPATNTKVDKTVAPSTCSKPMCPPPELPGGPSVFIFPPKPKDTLMISRTPEVTCVVVDVSQDDPEVQFTWYINNEQVRTARPPLREQQFNSTIRVVSTLPIAHQDWLRGKEFKCKVHNKALPAPIEKTISKARGQPLEPKVYTMGPPREELSSRSVSLTCMINGFYPSDISVEWEKNGKAEDNYKTTPTVLDSDGSYFLYSKLSVPTSEWQRGDVFTCSVMHEALHNHYTQKSISRSPGK
light: MDTRAPTQLLGLLLLWLPGATFAQVLTQTASPVSAAVGGTVTINCQSSQSVYDNNWLAWYQQKPGQPPKLLIDDASKLTSGVSSRFKGSGSGTQFTLTISGVQCDDAATYYCQGAYYSSGWYWAFGGGTEVVVKGDPVAPTVLIFPPAADQVATGTVTIVCVANKYFPDVTVTWEVDGTTQTTGIENSKTPQNSADCTYNLSSTLTLTSTQYNSHKEYTCKVTQGTTSVVQSFNRGDC
B6: 7D8B10: rat anti-α11β1 mAb; VH SEQ ID NO: 153, VL SEQ ID NO: 154 (antibody, V domains shown)
VH: MDLRLTYVFIVAILKGVLCEVKLEESGGGLVQPGMSVKLSCATSGFIFSDYWMEWVRQAPGKGLEWVAEIRNKANNYATYYGKSMKGRFTISRDDSKSIVYLQVNSIRSEDTAIYYCAPNFDYWGQGVMVTVSS
VL: MSPVQSLFLLLLWILGTHGDVVLTQTPPTLSATIGQSVSISCRSSQSLLHSTGNTYLNWLLQRPGQPPQLLIYLVSRLESGVPNRFSASGSGTDFTLKISGIEAEDLGVYYCVQSSHTPYTFGTGTKLELK
B7: 18E10F10: rat anti-α11β1 mAb; VH SEQ ID NO: 155, VL SEQ ID NO: 156 (antibody, V domains shown)
VH: MDIRLSLVFLVLFMKGVQCEVQLVESGGGLVQPGRSLKLSCAASRFTFSDYNMAWVRQAPKKGLEWVATIYHDDSGSYYRDSVKGRFTISRNNAKSTLYLQMDSLRSEDMATYYCARHNNGFDYWGQGVMVTVAS
VL: MKWPVRLLVLFFWIPASGGDVVMTQTPVSLPVRLGGQASISCRSSQSLVHSNGNTYLHWYLQKPGQSPQLLINRVSNRFSGVPDRFSGSGSGTDFTLKINRVEPEDLGDYYCLQSTHFPLTFGSGTKLETK

Key:
human α11β1 = human α11β1 (Homo sapiens, UniProt Q9UKX5); experiment: ELISA binding to recombinant human α11β1; conditions: binding Yes/No
Sequence of human α11β1 (Q9UKX5 23-1141 limits assumed): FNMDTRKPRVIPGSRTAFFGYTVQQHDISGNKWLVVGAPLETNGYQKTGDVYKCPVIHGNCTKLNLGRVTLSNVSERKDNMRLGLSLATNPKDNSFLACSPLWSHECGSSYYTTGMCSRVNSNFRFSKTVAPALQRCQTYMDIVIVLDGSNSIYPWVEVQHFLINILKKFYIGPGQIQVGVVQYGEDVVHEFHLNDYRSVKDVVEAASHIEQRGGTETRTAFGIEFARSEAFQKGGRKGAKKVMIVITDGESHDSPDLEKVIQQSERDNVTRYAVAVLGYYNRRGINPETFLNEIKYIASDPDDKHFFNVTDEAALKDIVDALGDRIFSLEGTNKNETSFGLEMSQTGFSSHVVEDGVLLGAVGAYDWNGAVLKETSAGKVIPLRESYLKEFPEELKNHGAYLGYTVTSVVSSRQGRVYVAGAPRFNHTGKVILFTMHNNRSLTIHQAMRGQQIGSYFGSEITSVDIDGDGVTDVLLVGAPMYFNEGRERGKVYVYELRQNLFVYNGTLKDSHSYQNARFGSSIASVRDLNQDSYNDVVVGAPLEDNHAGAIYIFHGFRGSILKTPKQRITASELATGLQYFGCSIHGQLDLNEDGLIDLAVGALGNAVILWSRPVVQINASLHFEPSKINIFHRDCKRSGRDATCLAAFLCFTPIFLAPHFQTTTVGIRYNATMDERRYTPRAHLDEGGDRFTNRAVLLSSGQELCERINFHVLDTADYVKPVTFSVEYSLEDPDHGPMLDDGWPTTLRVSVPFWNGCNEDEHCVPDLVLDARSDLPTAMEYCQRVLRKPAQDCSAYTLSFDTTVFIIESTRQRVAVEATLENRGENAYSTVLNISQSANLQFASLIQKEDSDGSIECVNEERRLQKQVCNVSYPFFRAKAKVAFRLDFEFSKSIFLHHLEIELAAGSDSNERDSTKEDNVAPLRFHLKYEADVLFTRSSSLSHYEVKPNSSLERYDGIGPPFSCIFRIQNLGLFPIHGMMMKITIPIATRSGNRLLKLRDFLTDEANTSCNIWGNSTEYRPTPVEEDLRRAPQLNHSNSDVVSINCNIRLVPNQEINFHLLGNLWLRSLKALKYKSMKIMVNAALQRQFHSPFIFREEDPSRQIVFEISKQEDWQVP
Sequence of human α11β1 (P05556 21-728 partner limits assumed): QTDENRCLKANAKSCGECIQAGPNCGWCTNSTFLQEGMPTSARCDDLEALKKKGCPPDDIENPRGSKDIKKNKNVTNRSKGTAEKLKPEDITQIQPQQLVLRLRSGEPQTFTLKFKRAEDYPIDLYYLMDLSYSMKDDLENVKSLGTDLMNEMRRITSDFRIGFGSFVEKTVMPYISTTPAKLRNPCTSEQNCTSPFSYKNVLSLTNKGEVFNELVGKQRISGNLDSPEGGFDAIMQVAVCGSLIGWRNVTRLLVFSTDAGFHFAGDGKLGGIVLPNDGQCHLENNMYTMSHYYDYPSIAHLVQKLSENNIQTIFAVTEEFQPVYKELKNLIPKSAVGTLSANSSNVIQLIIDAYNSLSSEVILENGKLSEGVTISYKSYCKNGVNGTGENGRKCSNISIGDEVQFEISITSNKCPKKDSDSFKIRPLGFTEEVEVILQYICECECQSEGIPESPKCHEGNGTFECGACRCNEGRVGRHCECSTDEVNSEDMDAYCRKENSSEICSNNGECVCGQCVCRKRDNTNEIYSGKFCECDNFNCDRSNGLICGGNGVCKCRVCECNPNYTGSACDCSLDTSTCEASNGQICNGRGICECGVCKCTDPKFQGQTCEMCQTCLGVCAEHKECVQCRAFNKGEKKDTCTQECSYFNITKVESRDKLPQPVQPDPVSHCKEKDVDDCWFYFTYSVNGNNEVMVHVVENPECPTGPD
Description: 0.25 μg/mL of target antigen (recombinant human or mouse α11β1) was plated in a 96-well plate over night at 4° C. Plates were washed (PBS with 0.1% Tween-20), blocked (PBS with 2% BSA and 0.05% Tween-20) for 1 hour at room temperature and incubated with a range of antibody concentrations for 1 hour at room temperature. Subsequently, plates were washed and incubated with biotinylated anti-rabbit/mouse/human IgG in a 1:1000 dilution buffer and incubated for 1 hour at room temperature. After washing the plates, Streptavidin HRP was added at 1:200 in dilution buffer and incubated for 1 hour at room temperature. Ultra TMB ELISA substrate solution was added and the plates incubated for 5 minutes on a plate shaker. The reaction was stopped by adding stop solution to each well and plates were read at 450 nm.

[1] = system: CHO-K1 cells expressing human α11; experiment: Cell adhesion inhibition (xCelligence), type I collagen; type: cell-based; conditions: Yes/No
Description: 0.6×10^6 cells/mL were incubated with each antibody at a range of concentrations for 20 minutes at 37° C. E-Plate VIEW 96 PET plate coated with 100 ng/mL type I collagen or PBS overnight at room temperature was blocked in 3% BSA for 1 house at room temperature. After washing the plate with PBS, cell and antibody mixture was added to the wells and the plate was places into an xCelligence machine. Cell adhesion was recorded over 6 hours. The time point of maximum cell adhesion was used for comparison relative to control.
A CHO-K1 hu α11 cell line was used to assess the ability of mAbs to block α11β1-mediated binding to type I collagen. […] In the “Untreated” condition, cells were plated on type I collagen but no antibody was added and in the “Uncoated” condition, cells were seeded onto BSA-coated wells containing no type I collagen. Statistics were performed using one-way ANOVA followed by Dunnett's multiple comparisons test. […] Therefore, it is possible that these mAbs bind on an α11β1 domain that keeps the integrin in a low or intermediate affinity state. […] Nine human mAbs were also tested for their ability to inhibit the binding of human CHO-α11 cells to type I collagen.

[2] = system: Human Pulmonary Fibroblasts; experiment: Fibroblast-to-Myofibroblasts Transition (FMT), αSMA expression; type: cell-based; conditions: Yes/No
Description: Human Pulmonary Fibroblasts (ScienCell) were cultured in complete Fibroblast Growth Medium (ScienCell) until 80% confluent. Cells were washed and harvested using Accutase. Cells were seeded onto tissue culture-treated 96 well plates at 20,000 cells/well in complete Fibroblast Growth Medium. After 24 hours, cells were washed and starved in serum reduced medium for an additional 24 hours. After starvation, cells were treated with TGFβ-1 (R&D Systems) with or without anti-α11 antibodies. A polyclonal rabbit anti-human α11 antibody was used as a positive control. Appropriate IgG isotype controls were also included. After 48 hours, cells were harvested, fixed, permeabilized and stained with AlexaFluor488 Labeled Anti-αSMA (α-smooth muscle actin) (Invitrogen). Cells were acquired on a FACS Verse (Benton Dickson) to determine expression levels of αSMA. Data were analyzed by gating on single cells and determining the geometric Mean Fluorescence Intensity (gMFI) in the FITC channel for each sample. gMFI for each sample was normalized to the untreated control and presented as % inhibition.
In addition to the binding abilities described above, it is important for an anti-α11β1 antibody to inhibit the fibroblast-to-myofibroblast transition (FMT). It is now appreciated that myofibroblasts are a heterogeneous cell population, existing in different activation states, with the main function of producing and contracting collagen extracellular matrix (ECM). FMT is a multi-step event that is controlled by a changing mechanical environment in tissues undergoing repair. TGFβ is one of the potent factors that potentiates this process and alpha smooth muscle actin (αSMA) is one of the main markers that becomes overexpressed when fibroblasts are undergoing the transition to becoming myofibroblasts. The presence of αSMA enhances fibroblast contraction and guides myofibroblast activation through an intracellular feedback loop. Because αSMA is the main molecular marker of myofibroblasts, the ability of the novel anti-α11β1 mAbs to inhibit αSMA expression in TGFβ-induced FMT was tested.

| Molecule | Human α11β1 ELISA (human α11β1) | Inhibition of CHO-K1 adhesion to collagen [1] | Inhibition of FMT [2] |
| --- | --- | --- | --- |
| B1 | Yes | Yes | No |
| B2 | Yes | Yes | No |
| B3 | Yes | Yes | No |
| B4 | Yes | No | No |
| B5 | Yes | Yes | No |
| B6 | Yes | No | Yes |
| B7 | Yes | Yes | Yes |
